Data as given in publication PMC10923870, “A three-level regulatory mechanism of the aldo-keto reductase subfamily AKR12D” (Nature Communications, 2024).

How the values were obtained:
[1] = biological target: T1, AKRtyl (Streptomyces xinghaiensis, UniProt A0A3R7J519); assay: X-ray crystal structure ([…] Å), equilibrium tryptophan fluorescence quenching and stopped-flow; format: binding
T1 construct: gene SFRA_012675; N-terminally His6-tagged AKRtyl, octamer

[2] = biological target: T2, AKR_coelicolor (Streptomyces coelicolor, UniProt Q9F2Z5); assay: steady-state kinetics, inhibition at high NADPH concentration; format: biochemical
T2 construct: gene SCO4352
T2 sequence (Q9F2Z5 1-330): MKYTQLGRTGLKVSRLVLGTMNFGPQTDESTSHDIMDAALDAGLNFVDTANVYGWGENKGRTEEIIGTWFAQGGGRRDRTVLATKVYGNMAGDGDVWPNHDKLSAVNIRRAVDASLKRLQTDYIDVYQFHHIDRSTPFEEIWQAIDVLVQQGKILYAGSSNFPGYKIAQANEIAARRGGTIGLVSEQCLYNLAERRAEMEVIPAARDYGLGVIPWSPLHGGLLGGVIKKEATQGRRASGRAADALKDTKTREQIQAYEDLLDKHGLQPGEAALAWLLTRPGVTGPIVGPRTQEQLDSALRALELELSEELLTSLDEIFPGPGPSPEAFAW

[3] = system: NC(=O)C1=CN([C@@H]2O[C@H](COP(=O)(O)OP(=O)(O)OC[C@H]3O[C@@H](n4cnc5c(N)ncnc54)[C@H](OP(=O)(O)O)[C@@H]3O)[C@@H](O)[C@H]2O)C=CC1; assay: tryptophan fluorescence quenching (equilibrium and stopped-flow); steady-state kinetics (Km); format: biochemical, Streptomyces xinghaiensis; conditions: Trp331 of the C-terminal tail loop contributes to binding of both NADPHs; varied: cofactor
[4] = biological target: the molecule itself; assay: crystal structure; sitting-drop vapour diffusion at 20 °C; AKRtyl at 10 mg/ml in 10 mM Tris-HCl pH 7.5, 150 mM NaCl; purified-state, apo, NADP(H), NADP+-tylosin and tylosin forms, all octameric

NC(=O)C1=CN([C@@H]2O[C@H](COP(=O)(O)OP(=O)(O)OC[C@H]3O[C@@H](n4cnc5c(N)ncnc54)[C@H](OP(=O)(O)O)[C@@H]3O)[C@@H](O)[C@H]2O)C=CC1 [NADPH]
Kd [1]: 450 nM | steady-state kinetics, inhibition at high NADPH concentration [2]: inhibition by the cofactor NADPH at high concentrations was also observed for these two AKRs

AKRtyl (Streptomyces xinghaiensis; W331A)
K0.5 [3]: 11.03 µM | kcat [3]: 0.18 ± 0.01 s⁻¹ | kcat/Km [3]: 16300 M⁻¹ s⁻¹

B1: AKRtyl (tylosin reductase, aldo-keto reductase AKR12D1) (enzyme, S. fradiae)
chain: MEYTQLGRIGLKVSRLVLGTMNFGPTTDEAESHAIMDAALDAGINFFDTANVYGWGENKGRTEEILGSWFAQGGDRRDKVVLATKVYGNMGLDGPAWPNHDKLSALNIRRSVDASLKRLGTDHIDLYQFHHVDRDTPWDEIWQAMDVLVRQGKILYVGSSNFAGWNIAQANETAARHGRLGLVSEQCLYNLCERRAEMEVVPAAREYGLGVIAWSPLHGGLLGGAIRKEQEGGNRRAASGRAADALKDPQQREQIQRYEDLLDKHGLEPGEVALAWLLTRPGVTGPIVGPRTADQLASAVRAAELTLTDEVLTALDEIFPGPGPSPEAFAW
notes: AKRtyl, tylosin reductase of the tylosin producer S. fradiae, UniProt A0A3R7J519; protein coding gene cloned into pET28a between NdeI and XhoI; Octamer made of two homotetramers; also called WT; source: E. coli BL21 (DE3), purified (Ni-NTA, size-exclusion chromatography on Superdex 200 increase)
stoichiometry N [4]: 8
